The text below walks through data of patent US20250197490A1 (HBM ALPHA THERAPEUTICS, published 2025).

First the molecules themselves.
T1: corticotropin-releasing hormone (CRH) peptide (human and mouse, UniProt P01143 145-185 (rat entry), not fully specified)
T1 peptide: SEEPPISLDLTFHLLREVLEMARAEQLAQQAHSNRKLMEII

B1: PR302334-27 (antibody, human IgG1, kappa, V domains shown)
VH: EVQLVESGGGLVQPGGSLRLSCAASGFTFSTYAMSWVRQAPGKGLEWVASIRSGGTTYYPDSVKGRFTISRDNSKNSLYLQMNSLRAEDTAVYYCTRGIDWGQGTTVTVSS
VL: DIQMTQSSLSASVSLGDRVTITCKASQSVNNDVAWYQQKPGKAPRLLIYYASNRYTGVPSRFSGSGSGTDFTFTISSLQPEDLATYFCQQDYSSWTFGGGTKVEIKR
B2: PR302334-24 (antibody, human IgG1, kappa, V domains shown)
VH: B1 VH with Q13K, S74A
VL: DIVMTQSPDSLAVSLGERATINCKASQSVNNDVAWYQQKPGQPPRLLIYYASNRYTGVPDRFSGSGSGTDFTLTISSLQAEDLAVYFCQQDYSSWTFGGGTKVEIKR
B3: PR302334-14 (antibody, human IgG1, kappa, V domains shown)
VH: B1 VH with S77T
VL: NIVMTQTPKFLLVSAGDRITITCKASQSVNNDVAWYQQKPGQSPKLLIYYASNRYTGVPDRFTGSGYGTDFTFTISTVQAEDLAVYFCQQDYSSWTFGGGTNLEIKR
B4: PR302334-6 (antibody, human IgG1, kappa, V domains shown)
VH: EVKLVESGGGLVKPGGSLKLSCAASGFTFSTYAMSWVRQTPEKRLEWVASIRSGGTTYYPDSVKGRFTISRDNARNILYLQMSSLRSEDTAIYYCTRGIDWGQGTLVTVSA
VL: B1 VL
B5: PR302334-15 (antibody, human IgG1, kappa, V domains shown)
VH: B1 VH with Q13K, A49S, S74A, T96A
VL: B3 VL
B6: PR302334-11 (antibody, human IgG1, kappa, V domains shown)
VH: B1 VH with S77T
VL: B1 VL with L83I, F87Y
B7: PR302334-5 (antibody, human IgG1, kappa, V domains shown)
VH: B4 VH
VL: B1 VL with L83I, F87Y
B8: PR302334-7 (antibody, human IgG1, kappa, V domains shown)
VH: B1 VH with S77T
VL: EIVMTQSPATLSVSPGERATLSCKASQSVNNDVAWYQQKPGQAPRLLIYYASNRYTGIPARFSGSGSGTEFTLTISSLQSEDFAVYYCQQDYSSWTFGGGTKVEIKR
B9: PR302334-25 (antibody, human IgG1, kappa, V domains shown)
VH: B1 VH with Q13K, S74A
VL: B1 VL
B10: PR302334-17 (antibody, human IgG1, kappa, V domains shown)
VH: B1 VH with A49S, T96A
VL: B3 VL
B11: PR302334-9 (antibody, human IgG1, kappa, V domains shown)
VH: B1 VH with S77T
VL: B2 VL with L83V, F87Y
B12: PR302334-22 (antibody, human IgG1, kappa, V domains shown)
VH: B1 VH with A49S, T96A
VL: B8 VL with F83L, Y87F
B13: PR302334-8 (antibody, human IgG1, kappa, V domains shown)
VH: B1 VH with S77T
VL: B8 VL with F83L, Y87F
B14: PR302334-12 (antibody, human IgG1, kappa, V domains shown)
VH: B1 VH with S77T
VL: B1 VL
B15: PR302334-10 (antibody, human IgG1, kappa, V domains shown)
VH: B1 VH with S77T
VL: B2 VL
B16: PR302334-16 (antibody, human IgG1, kappa, V domains shown)
VH: B1 VH with Q13K, S74A
VL: B3 VL
B17: PR302334-1 (antibody, human IgG1, kappa, V domains shown)
VH: B4 VH
VL: B8 VL
B18: PR302334-4 (antibody, human IgG1, kappa, V domains shown)
VH: B4 VH
VL: B2 VL
B19: PR302334-3 (antibody, human IgG1, kappa, V domains shown)
VH: B4 VH
VL: B2 VL with L83V, F87Y
B20: PR302334-2 (antibody, human IgG1, kappa, V domains shown)
VH: B4 VH
VL: B8 VL with F83L, Y87F
B21: PR302341-12 (antibody, human IgG1, kappa, V domains shown)
VH: QVQLVQSGAEVKKPGASVKVSCKASGYTFTDYFMKWVRQAPGQGLEWMGVINPNNGDIFYNQKFKGRVTMTVDKSTSTAYMELSSLRSEDTAVYYCARGTDRALFAYWGQGTLVTVSS
VL: DVVMTQTPLSLSVTPGQPASISCRSGQSIVHSDGNTYLEWYLQKPGQSPQLLIYKVSNRFSGVPDRFSGSGSGTDFTLKISRVEAEDLGVYYCFQGSHIPWTFGGGTKVEIKR
B22: PR302341-25 (antibody, human IgG1, kappa, V domains shown)
VH: B21 VH with G44R, M70I, T76A
VL: B21 VL
B23: PR302341-22 (antibody, human IgG1, kappa, V domains shown)
VH: B21 VH with V72R, K74T, T76I, S85R, E89D
VL: B21 VL with T7S, S12P, P15L, L42Q, K44R, Q50R
B24: PR302341-26 (antibody, human IgG1, kappa, V domains shown)
VH: B21 VH with T76I, S85R, E89D
VL: B21 VL with L11S, S12P, P15L, L42Q, K44R, S48P, Q50R, S72A
B25: PR302341-15 (antibody, human IgG1, kappa, V domains shown)
VH: B21 VH with G44R, M70I, V72R, K74T, T76A
VL: DVLMTQTPLSLPVSLGDQASISCRSGQSIVHSDGNTYLEWYLQRPGQSPRLLIYKVSNRFSGVPDRFSGSGSGTDFTLKISRVGAEDLGIYYCFQGSHIPWTFGGGTKLEVKR
B26: PR302341-16 (antibody, human IgG1, kappa, V domains shown)
VH: B21 VH with G44R, M70I, T76A
VL: B25 VL
B27: PR302341-23 (antibody, human IgG1, kappa, V domains shown)
VH: B21 VH with T76I, S85R, E89D
VL: B21 VL with T7S, S12P, P15L, L42Q, K44R, Q50R
B28: PR302341-27 (antibody, human IgG1, kappa, V domains shown)
VH: B21 VH with T76I, S85R, E89D
VL: B21 VL
B29: PR302341-24 (antibody, human IgG1, kappa, V domains shown)
VH: B21 VH with G44R, M70I, T76A
VL: B21 VL with L11S, S12P, P15L, L42Q, K44R, S48P, Q50R, S72A
B30: PR302341-17 (antibody, human IgG1, kappa, V domains shown)
VH: B21 VH with V72R, K74T, T76I, S85R, E89D
VL: B25 VL
B31: PR302341-21 (antibody, human IgG1, kappa, V domains shown)
VH: B21 VH with G44R, M70I, T76A
VL: B21 VL with T7S, S12P, P15L, L42Q, K44R, Q50R
B32: PR302341-20 (antibody, human IgG1, kappa, V domains shown)
VH: B21 VH with G44R, M70I, V72R, K74T, T76A
VL: B21 VL with T7S, S12P, P15L, L42Q, K44R, Q50R
B33: PR302341-18 (antibody, human IgG1, kappa, V domains shown)
VH: B21 VH with T76I, S85R, E89D
VL: B25 VL

Changes are numbered by the printed parent chain.

One test concerns the target T1, corticotropin-releasing hormone (CRH) …. Put plainly: cell-based or functional assay.
On to B1, for which the “hCRHR1-Luc 0.5 nM CRH IC50” value came out at 1.36 nM. The same measure, in the same setting: under B2 stands 0.778 nM; under B3, 0.468 nM. Still for that read-out and setting: as for B4, the figure is 0.404 nM; as for B5, 5.12 nM; as for B6, 1 nM. The same measure, in the same setting: under B7 stands 0.325 nM. B8: the “hCRHR1-Luc 0.5 nM CRH IC50” value came out at 0.996 nM. On to B9, for which the “hCRHR1-Luc 0.5 nM CRH IC50” value stood at 1.7 nM. As for B10, the “hCRHR1-Luc 0.5 nM CRH IC50” value is 12.2 nM. With B11, the “hCRHR1-Luc 0.5 nM CRH IC50” value came out at 1.42 nM. Same read-out and setting: under B12 stands 0.92 nM; under B13, 0.816 nM; under B14, 0.986 nM. As to B15, the “hCRHR1-Luc 0.5 nM CRH IC50” value is 0.839 nM. For B16, the “hCRHR1-Luc 0.5 nM CRH IC50” value is 0.339 nM. Still for that read-out and setting: as for B17, the figure is 0.624 nM; as for B18, 0.553 nM. Same read-out and setting: under B19 stands 0.542 nM; under B20, 0.597 nM.

For the next test the target is unchanged. Put plainly: cell-based or functional assay. This is another data set of the same source.
For the molecule B21, the “hCRHR1-Luc 0.5 nM CRH IC50” value stood at 0.25 nM. Same read-out and setting: under B22 stands 0.711 nM. On to B23, for which the “hCRHR1-Luc 0.5 nM CRH IC50” value stood at 0.243 nM. For the molecule B24, the “hCRHR1-Luc 0.5 nM CRH IC50” value is 0.273 nM. Still for that read-out and setting: under B25 stands 0.124 nM. Still for that read-out and setting: as for B26, the figure is 0.225 nM.

In the case of B27, the “hCRHR1-Luc 0.5 nM CRH IC50” value was determined as 0.043 nM.

In the case of B28, the “hCRHR1-Luc 0.5 nM CRH IC50” value was found to be 0.518 nM.

Take B29: the “hCRHR1-Luc 0.5 nM CRH IC50” value was 0.192 nM.

For the molecule B30, the “hCRHR1-Luc 0.5 nM CRH IC50” value is 0.104 nM. Still for that read-out and setting: under B31 stands 0.177 nM. On to B32, for which the “hCRHR1-Luc 0.5 nM CRH IC50” value is 0.162 nM.

For the molecule B33, the “hCRHR1-Luc 0.5 nM CRH IC50” value worked out at 0.169 nM.
